How the values were obtained:
[1] = tested on: ZAP, zeta activating peptide, the PKCzeta uORF-encoded peptide
[2] = tested on: T1, ZIP, zeta inhibitory peptide, the pseudo-substrate peptide of the PKCzeta regulatory domain
T1 sequence: SIYRRGARRWRKL

Row | Substance | phosphorylation of MBP by PKC isoforms (32P-γATP in vitro kinase assay) [1] | kinase activity (phosphorylation of MBP, 32P-γ-ATP in vitro kinase assay, dose series of peptide) [1] | kinase activity (phosphorylation of MBP, 32P-γ-ATP in vitro kinase assay, dose series of peptide) [2]
1 | PKCdelta, HA-tagged, immunoprecipitated from HEK293T lysate | enhanced the phosphorylation of PKC isoforms of the novel PKC sub-family of PKCzeta, PKCdelta and PKCepsilon |  | 
2 | PKCgamma, HA-tagged, immunoprecipitated from HEK293T lysate | the peptide had no effect on the phosphorylation of MBP by the PKC isoforms PKCeta (PKCη), PKCtheta (PKCθ), PKCgamma (PKCγ), and PKCalpha (PKCα) |  | 
3 | PKMzeta, truncated version of PKCzeta containing only the kinase domain |  | the ZAP peptide activates the kinase activity of both PKCzeta and PKMzeta | the known PS ZIP peptide inhibits their activity

Reference: patent US20240209044
